From patent publication US20240287479A1, “GLYCOSYLTRANSFERASE MUTANT, AND METHOD FOR CATALYTIC SYNTHESIS OF REBAUDIOSIDE M USING GLYCOSYLTRANSFERASE MUTANT” (XINGHUA GL STEVIA CO., LTD, priority 2021, published 2024)
Where a chain is given by its changes, count along the chain named. Names and notes keep the numbering of the source.

B1: S195Q: UGT76G1 (SEQ ID NO: 1) mutant, position 195 serine to glutamine (protein)
chain: MENKTETTVRRRRRIILFPVPFQGHINPILQLANVLYSKGFSITIFHTNFNKPKTSNYPHFTFRFILDNDPQDERISNLPTHGPLAGMRIPIINEHGADELRRELELLMLASEEDEEVSCLITDALWYFAQSVADSLNLRRLVLMTSSLFNFHAHVSLPQFDELGYLDPDDKTRLEEQASGFPMLKVKDIKSAYQNWQILKEILGKMIKQTKASSGVIWNSFKELEESELETVIREIPAPSFLIPLPKHLTASSSSLLDHDRTVFQWLDQQPPSSVLYVSFGSTSEVDEKDFLEIARGLVDSKQSFLWVVRPGFVKGSTWVEPLPDGFLGERGRIVKWVPQQEVLAHGAIGAFWTHSGWNSTLESVCEGVPMIFSDFGLDQPLNARYMSDVLKVGVYLENGWERGEIANAIRRVMVDEEGEYIRQNARVLKQKADVSLMKGGSSYESLESLVSYISSL
modifications: The sequence is synthetized.
B2: L200Y-StSUS1: recombinase (crude enzyme) from E. coli BL21 (DE3) co-expressing mutant L200Y and sucrose synthase StSUS1 (protein)
chain: B1 chain with Q195S, L200Y
B3: S195Q-StSUS1: recombinase (crude enzyme) from E. coli BL21 (DE3) co-expressing mutant S195Q and sucrose synthase StSUS1 (protein)
chain: B1 chain

Key:
Format in all cases: biochemical
[1] = Kinetic parameters of purified glycosyltransferases for rebaudioside D
Protocol: (§1) Activities of glycosyltransferase mutants and a WT glycosyltransferase were determined. A 3 mL catalytic reaction system was prepared from the following components: 1.2 mM rebaudioside E, 2 mM UDPG, 3 mM MgCl2, crude enzyme: 1 mg, and 100 mM potassium phosphate buffer with a pH of 7.2: the balance. A catalytic reaction was conducted on a shaker at 37° C. and 200 rpm, where a sample was collected at 0 min and 30 min. Sample treatment: 500 μL of a sample solution was pipetted and added to an EP tube; the EP tube was placed in boiling water at 95° C. for 15 min to stop a reaction, and then centrifuged in a centrifuge at 12,000 rpm for 1 min; and a resulting supernatant was collected and added to a new EP tube, filtered through an organic filter membrane (0.45 μm), and stored in a liquid-phase sample bottle for high-performance liquid chromatography (HPLC) analysis. Definition of an enzyme activity (U): an enzyme amount required for producing 1 μmol of a product within 1 min is defined as 1 enzyme activity unit.
(§2) A final concentration of rebaudioside E was set to 10 μM to 2,000 μM or a final concentration of rebaudioside D was set to 50 μM to 2,000 μM. Rebaudioside E or rebaudioside D solutions of different concentrations each were mixed with an appropriate amount of each of the purified WT UGT76G1 and the mutant S195Q, and an enzyme activity was determined according to the enzyme activity assay method described above. A Michaelis Menten equation was used to calculate Kn, Vmax, Keat, and Keat/Km of the purified WT glycosyltransferase and the glycosyltransferase mutant.

[2] = Kinetic parameters of purified glycosyltransferases for rebaudioside E
Protocol: as §1, §2

[3] = Crude enzyme activity of glycosyltransferase mutants and WT (HPLC); settings: 1.2 mM rebaudioside E, 2 mM UDPG, crude enzyme 1 mg, 37° C., 30 min
Protocol: as §1
The four mutant strains S195Q-StSUS1, L200Y-StSUS1, T284S-StSUS1, and S285W-StSUS1 screened out in the above conversion experiment were used to produce glycosyltransferase mutants, and the glycosyltransferase mutants and the WT glycosyltransferase UGT76G1 were tested for activities. […] Thus, the optimal mutant strain S195Q-StSUS1 was screened out.

[4] = Preliminary screening: conversion of RebE by crude recombinases; settings: 40° C., 12 h
Protocol: (§3) Recombinases were prepared with the mutant strains G87D-StSUS1, S147D-StSUS1, S147N-StSUS1, S195Q-StSUS1, L200Y-StSUS1, T284S-StSUS1, S285W-StSUS1, and G378P-StSUS1 and the WT strain UGT76G1-StSUS1, and then used to convert RebE or RebD to preliminarily screen out relatively-preferred mutants.
The conversion of RebE adopted a 3 mL reaction system including. RebE as a substrate: 10 g/L, sucrose: 30 g/L, crude enzyme: 5 mg/mL, and 100 mM potassium phosphate buffer (pH 7.2): the balance. A RebE conversion reaction was conducted on a shaker at 40° C. and 200 rpm for 12 h, and corresponding conversion rates were shown in FIG. 1.

[5] = Preliminary screening: conversion of RebD by crude recombinases; settings: 40° C.; for RebD substrate conversion rate relative to UGT76G1-StSUS1: 20 h
Protocol: as §3
The conversion of RebD adopted a 3 mL reaction system including: RebD as a substrate: 1 g/L, sucrose: 3 g/L, crude enzyme: 5 mg/mL, and 100 mM potassium phosphate buffer (pH 7.2): the balance. A RebD conversion reaction was conducted on a shaker at 40° C. and 200 rpm for 6 h and 20 h, and corresponding conversion rates were shown in FIG. 2.

[6] = substrate RebD, purified enzyme
[7] = substrate RebE, purified enzyme

improvement of affinity compared with the WT glycosyltransferase ([1]; substrate rebaudioside D) | Molecule | Kcat [1, 6] | Km [1, 6] | improvement of catalytic efficiency compared with the WT glycosyltransferase ([1]; substrate rebaudioside D) | Kcat [2, 7] | Km [2, 7] | improvement of catalytic efficiency compared with the WT glycosyltransferase ([2]; substrate rebaudioside E) | enzyme activity (in words) [3] | enzyme activity relative to WT glycosyltransferase UGT76G1 [3] | RebE conversion rate relative to UGT76G1-StSUS1 [4] | catalytic effect on RebD (in words) ([5]; 6 h) | RebD substrate conversion rate relative to UGT76G1-StSUS1 [5]
2.2 times | B1 | 0.25 ± 0.004 s⁻¹ | 214 ± 14.5 µM | 2.8 times | 1.48 ± 0.01 s⁻¹ | 56.3 ± 2.02 µM | 2.2 times | highest enzyme activity | 1.3 times |  |  | 
 | B2 |  |  |  |  |  |  |  |  | 1.1 times | optimal catalytic effect | 1.3 times
 | B3 |  |  |  |  |  |  |  |  | 1.1 times |  | 1.3 times
